Experimental data published in article PMC10911789.

Target: recombinant spike glycoprotein RBD from SARS-CoV-2 (BEI Resources NR-52366) (SARS-CoV-2) (UniProt P0DTC2)
Assay: BLI

Sequence of recombinant human GAPDH (glyceraldehyde-3-phosphate dehydrogenase), P04406 1-335 (enzyme; other documents disagree on this pair) (P04406 whole entry): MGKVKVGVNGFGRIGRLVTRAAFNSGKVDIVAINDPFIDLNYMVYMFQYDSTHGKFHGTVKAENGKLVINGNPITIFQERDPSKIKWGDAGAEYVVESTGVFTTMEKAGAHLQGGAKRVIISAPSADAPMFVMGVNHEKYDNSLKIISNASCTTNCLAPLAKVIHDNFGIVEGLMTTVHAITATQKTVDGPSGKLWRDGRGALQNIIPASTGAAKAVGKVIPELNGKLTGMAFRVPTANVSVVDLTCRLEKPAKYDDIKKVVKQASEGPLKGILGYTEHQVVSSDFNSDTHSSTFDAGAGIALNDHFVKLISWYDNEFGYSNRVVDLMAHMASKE

Work on “recombinant human GAPDH (glyceraldehyde-3-phosphate dehydrogenase), P04406 1-335 (enzyme; other documents disagree on this pair)” yielded a Kd of 11.8 nM.
